Assay results reported in patent US20190119345A1 (published 2019).

Target: T1, murine NKG2D on NK cells / splenocytes (mouse, UniProt O54709 1-232)
T1 construct: whole, on cells; also called NKG2D receptor
T1 sequence: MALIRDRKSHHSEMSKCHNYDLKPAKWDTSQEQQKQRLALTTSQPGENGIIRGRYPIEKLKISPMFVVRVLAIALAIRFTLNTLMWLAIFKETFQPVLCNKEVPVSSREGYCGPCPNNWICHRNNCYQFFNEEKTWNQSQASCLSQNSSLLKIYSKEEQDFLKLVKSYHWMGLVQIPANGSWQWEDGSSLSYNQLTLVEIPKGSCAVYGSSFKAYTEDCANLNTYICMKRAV
Assay: flow cytometry, fluorescently labeled construct on bulk splenocytes at 37° C.

B1: OMCP-mutIL2 (R38A, F42K, C125S IL2-OMCP construct) (other)
chain: HKLAFNFNLEINGSDTHSTVDVYLDDSQIITFDGKDIRPTIPFMIGDEIFLPFYKNVFSEFFSLFRRVPTSTPYEDLTYFYECDYTDNKSTFDQFYLYNGEEYTVKTQEATNKNMWLTTSEFRLKKWFDGEDCIMHLRSLVRKMEDSKRNTGGTGSSGSSDYKDDDDKHHHHHHHHGSSGSSAPTSSSTKKTQLQLEHLLLDLQMILNGINNYKNPKLTAMLTKKFYMPKKATELKHLQCLEEELKPLEEVLNLAQSKNFHLRPRDLISNINVIVLELKGSETTFMCEYADETATIVEFLNRWITFSQSIISTLT
notes: also called OMCP-mutant IL2; OMCP-IL2 construct
binding result: binds
